Test [1] concerns the target human C5a receptor (C5aR) (human) (UniProt P21730). Nature of the test: flow cytometry on cells; kinetics: 300 nM FITC-CHIPS(28-149) added to C5aR-transfected RBL cells, dissociation started with 14 μM unlabelled CHIPS(28-149); Kd from kobs and koff, five experiments.
In test [2] the target is formyl peptide receptor (FPR) (UniProt P21462).
Test [3] has as its target human C5a receptor (C5aR) (human) (UniProt P21730).
Test [4] shares this target. The test is described as follows: flow cytometry on cells; competition: RBL cells transfected with human C5aR pre-treated with unlabelled CHIPS or human C5a, then 210 nM FITC-rCHIPS(28-149); cell-associated fluorescence.
The target of test [5] is C5a-like receptor 2 (C5L2), the second C5a receptor (UniProt Q9P296). The test is described as follows: flow cytometry on cells; inhibition of ligand binding: transfected cells co-incubated with rCHIPS(28-149) and His6-C5a (50 nM), His6-C5a des Arg (50 nM) or FITC-formyl peptide (500 nM); 30 min at 4 °C in PBS + 0.1% BSA, 0.2% NaN3; His6 ligands detected with anti-RGSHis6 and anti-mouse IgG-FITC.
Sequence of C5a-like receptor 2 (C5L2), the second C5a receptor (Q9P296 whole entry): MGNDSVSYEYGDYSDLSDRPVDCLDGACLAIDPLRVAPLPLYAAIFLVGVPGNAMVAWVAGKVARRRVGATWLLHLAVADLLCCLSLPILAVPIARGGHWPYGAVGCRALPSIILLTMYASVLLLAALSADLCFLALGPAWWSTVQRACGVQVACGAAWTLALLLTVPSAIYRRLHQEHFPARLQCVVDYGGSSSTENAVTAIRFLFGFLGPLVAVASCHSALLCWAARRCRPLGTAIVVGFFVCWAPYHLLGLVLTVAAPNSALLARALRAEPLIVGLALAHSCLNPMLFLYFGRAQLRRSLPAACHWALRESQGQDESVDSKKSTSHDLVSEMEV

Test [6] has as its target human C5a receptor (C5aR) (human) (UniProt P21730). The description is as above.

This is an account of results in article PMC2646901.

pIC50: −log10 of the molar value.

Sequence of human C5a receptor (C5aR) (human) (P21730 whole entry): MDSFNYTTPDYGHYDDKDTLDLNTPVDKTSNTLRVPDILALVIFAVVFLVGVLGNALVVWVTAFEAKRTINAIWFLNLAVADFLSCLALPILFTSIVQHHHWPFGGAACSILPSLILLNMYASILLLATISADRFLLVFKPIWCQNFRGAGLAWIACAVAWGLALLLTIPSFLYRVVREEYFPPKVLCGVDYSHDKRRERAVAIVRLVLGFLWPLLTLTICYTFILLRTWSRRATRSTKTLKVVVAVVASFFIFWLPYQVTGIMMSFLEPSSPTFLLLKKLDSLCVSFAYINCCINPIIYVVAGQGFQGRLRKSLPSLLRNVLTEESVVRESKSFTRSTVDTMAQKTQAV
Sequence of formyl peptide receptor (FPR) (P21462 whole entry): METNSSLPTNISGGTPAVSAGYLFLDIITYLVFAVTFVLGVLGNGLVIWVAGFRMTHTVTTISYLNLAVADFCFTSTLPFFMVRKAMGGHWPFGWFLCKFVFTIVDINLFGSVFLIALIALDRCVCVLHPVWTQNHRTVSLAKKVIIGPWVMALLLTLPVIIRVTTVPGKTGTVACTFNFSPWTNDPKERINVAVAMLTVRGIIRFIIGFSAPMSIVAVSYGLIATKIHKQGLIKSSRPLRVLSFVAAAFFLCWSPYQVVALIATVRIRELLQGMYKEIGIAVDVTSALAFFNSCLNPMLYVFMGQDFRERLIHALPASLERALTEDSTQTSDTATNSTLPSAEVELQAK

In test [1], “FITC-labelled recombinant CHIPS_(28–149) (from UniProt A6QIG7 28-149) (domain or fragment)” came in with a t1/2 of association of 10.2 s and a t1/2 of dissociation of 43.8 s.

In test [2], “rCHIPS_(30–141) (from UniProt A6QIG7 30-141) (domain or fragment)” yielded an inhibition of FPR activation by formyl peptide on RBL cells (Schild plot); potency relative to rCHIPS(28-149) of 12 fold.

In test [2], “recombinant chemotaxis inhibitory protein of Staphylococcus aureus, residues 28-149 (rCHIPS_(28–149)) (from UniProt A6QIG7 28-149) (domain or fragment)” yielded an inhibition of formyl peptide-induced activation of FPR on RBL cells (secretion of β-hexosaminidase) greater than 1 mM. For the same substance, the inhibition of C5a-induced activation of C5aR on RBL cells (secretion of β-hexosaminidase); blocks C5a + C5aR in test [3] was 2.44 µM. Also, the values for the pIC50 in test [4], in test [5] and in test [6] were 7.16, 6.56 and 8.17, respectively.
